Legend:
[1] = target: Monodelphis domestica von Willebrand factor (VWF), purified from plasma (Monodelphis domestica)
[2] = target: human von Willebrand factor (VWF) (human) (UniProt P04275)

## botrocetin from Bothrops jararaca (purified venom fraction) (complex)
[1]
  reduction in the overall extent of platelet adhesion to collagen under flow (60 dyn/cm^2), opossum PRP with 4 ug/mL botrocetin, against the control without venom protein: 39%
[2]
  reduction in the overall extent of platelet adhesion to collagen under flow (60 dyn/cm^2), human PRP with 4 ug/mL botrocetin, against the control without venom protein: 66%

From publication PMC12448354
